Laboratory results published in US9278137B2, “Polymeric conjugates of active principles, their process of preparation and their polymeric intermediates” (SANOFI, priority 2010, dated 2016).
Like-named read-outs stand apart in the source and are kept apart here.

Assays:
[1] = for In vitro data in rat plasma (release of free cabazitaxel): 37° C., formulation 1 mg/mL; for release profile (in words): comparison of linkers
[2] = Nanoparticle size (hydrodynamic diameter) by dynamic light scattering (DLS); settings: nanodispersion 10 mg/mL in WFI

Row | Substance | In vitro data in rat plasma (release of free cabazitaxel) ([1]; Time 0 h) | In vitro data in rat plasma (release of free cabazitaxel) ([1]; Time 1 h) | In vitro data in rat plasma (release of free cabazitaxel) ([1]; Time 2 h) | In vitro data in rat plasma (release of free cabazitaxel) ([1]; Time 4 h) | In vitro data in rat plasma (release of free cabazitaxel) ([1]; Time 18 h) | In vitro data in rat plasma (release of free cabazitaxel) ([1]; Time 24 h) | free cabazitaxel released in 24 h ([1]; rat plasma) [%] | release profile (in words) ([1]; rat plasma) | Mean diameter (using DLS) [2] [nm] | PDI (DLS) [2] | release of succinyl-cabazitaxel from the formulation ([1]; rat plasma, quantified using HPLC)
1 | mPEG-PLA-diglycolyl-cabazitaxel [XI] | 2.20 | 5.36 | 8.67 | 14.81 | 49.39 | 55.09 | ~47 | relatively rapid release | 52 | 0.18 | 
2 | mPEG2000-PLA10000-Y-succinyl-2′-cabazitaxel [VIII′] | 0 | 0.84 | 1.68 | 3.30 | 17.35 | 20.16 | ~17 | slowest release profile |  |  | < 1 % of cabazitaxel present initially in the nanoparticles
3 | mPEG-PLA-succinyl-larotaxel [IX] |  |  |  |  |  |  |  |  | 48 | 0.17 | 
4 | mPEG-PLA-glutaryl-cabazitaxel | 0 | 1.31 | 2.30 | 5.29 | 23.51 | 31.72 | ~27 |  | 60 | 0.21 | 
